Experiment: soluble on expression in E. coli; label from the status in PepcDB or PDB records

Which “soluble on expression in E. coli” value does the source give for “EWVAPTLSQKAENIKAAAINGKISTGNTGLWLKEKNSIINVREMLPDHTLLGIKIWARNDKNELAEAVEADSAVLNSDGSWQLKNIRRSTLGEDKVEVSIAAEENWPISVKRNLMDVLLVKPDQMSVGELTTYIRHLQNNSQNTRIYAIAWWRK” here?
The value was “not soluble”.

For “MSLNQPDLFSSTSGTVGGLAVQSILEGFKSHYARDQETELSLEEYLSLAKQDPMAYASPAERMLAAIGEPELIDTRNDPRLSRLFSNRLVRRYPAFKEFYGLEDVIDQIVAFFKHAAQGLEERKQILYLLGPVGGGKSSIAERLKVLMEAYPIYALKGSPVNESPLGLFHPDRFGDTLEQEYGIARRYLCGIMSPWAVKRLREFDGDISQFRVVRLNPSVLRQVAIAKTEPGDENNQDISSLVGKVDIRKLERYAQDDPDAYSYSGGLCLANQGLLEFVEMFKAPIKMLHPLLTATQEGNFKGTEGFSAIPFNGMILAHSNESEWQTFRNNKHNEAFLDRIYIVKVPYCLQVSEEVCIYEKLLRHSSLAQAPCAPGTLDMMAQFSVLTRLKEPENSSIYSKLRVYDGESLKDVDPKAKALQEYKDYAGTDEGMTGVSTRFAYKILSSVFNYDQTEVAANPVHLMYVLEQRIAREDFPEETRRRYLEFIKGYLAPRYAEFIGKEIQTAYLESYSEYGQNIFDRYVTFADCWIQDEEFRDPETGESFDRSALNDELEKIEKPAGIANPKDFRNEIVNFVLRARANNAGRNPNWTSYEKLREVIEKKMFSNTEDLLPVISFNAKASAEDRSKHQSFVDRMVDKGYTEKQVRLLCEWYLRVRKSSEGHHHHHH”, which “soluble on expression in E. coli” value is on record?
Its value is “soluble”.

Which “soluble on expression in E. coli” value does the source give for “MGSDKIHHHHHHMNQDRNKLLSKIAYLYYIENLNQSQIAAKLGIYRTSISRMLTEARNVGIVKIEIENFDTNMFKLENYVKEKYSLESLEIIPNEFDDTPTILSERISQVAAGVLRNLIDDNMKIGFSWGKSLSNLVDLIHSKSVRNVHFYPLAGGPSHIHAKYHVNTLIYEMSRKFHGECTFMNATIVQENKLLADGILQSRYFENLKNSWKDLDIAVVGIGDFSNKGKHQWLDMLTEDDFKELTKVKTVGEICCRFFDSKGKEVYENLQERTIAISLEDLKNIPQSLAVAYGDTKVSSILSVLRANLVNHLITDKNTILKVLEEDGDLTFREILGE” here?
The value was “not soluble”.

For “MKSEANLRGMIDIEFYYHTCEAKKYFRNEVINYLVNLKSNVTIEMTRYWTEGADVVNHLFFCNIHGIGIPNLHGVLFQVKSYRYYSGFLLSTASQSFCG”, which “soluble on expression in E. coli” value is on record?
The value was “not soluble”.

With “MGYTVAVVGATGAVGAQMIKMLEESTLPIDKIRYLASARSAGKSLKFKDQDITIEETTETAFEGVDIALFSAGSSTSAKYAPYAVKAGVVVVDNTSYFRQNPDVPLVVPEVNAHALDAHNGIIACPNCSTIQMMVALEPVRQKWGLDRIIVSTYQAVSGAGMGAILETQRELREVLNDGVKPRDLHAEILPSGGDKKHYPIAFNALPQIDVFTDNDYTYEEMKMTKETKKIMEDDSIAVSATCVRIPVLSAHSESVYIETKEVAPIEEVKAAIAAFPGAVLEDDVAHQIYPQAINAVGSRDTFVGRIRKDLDAEKGIHMWVVSDNLLKGAAWNSVQIAETLHERGLVRPTAELKFELK” as the sequence, how does the “soluble on expression in E. coli” value read?
Its value is “soluble”.

Which “soluble on expression in E. coli” value does the source give for “MGSDKIHHHHHHMRVIKVKTISETLDYISKHTASVARFGDGEIDIIAGNSIPYQVYASALAARLERLLNRQSNEKLVICVSDVFDNLGRYNDFSQQFWRDHLYQYNDLYQKNCQAEWYGSTFISRPYMDLLDKSLSVTYFEQLKALWKNKDILIVEGETSRSGVGNDLFNDANTISRIICPSKDAFSSFYEIKETILEHSRGKLILLMLGPTAKLLAEDLSQLGHQAIDLGHIDSEYEWFKMGAVSKVKLSHKHTAEHNFDEDITLIEDNSYENQIVSKIGTSDRQYALTVTLTDDIWELEHLLQRCPNTDFHIAAPVYCSDRLKQLVGYPNYYLHEAITEEQFEVLLLNSDIYLDINHGEEVWNVVDRCITEGKTIYGIRRARKDNQYISFERTMDDFEYLCDTIKQNR” here?
Its value is “not soluble”.

For “AKPVTSETMAAKTVGLQIYSLGKELYADVPGGLKKIKQMGYTNLELAGYKEGKIGGVDMMEFKKMVDDAGLKITSSHVNPPVREYTKANRSQISEYWKKTADDHAKLGVKYLIQPGQPSTRSTEETAFVCEIFNEAGKIVKAAGIPFGYHNHEMEFAKVNPGSTEAKLGRRVKGDCIYELFLKNTDPSLVFFEMDVYWAVMGQQDPIEWLKKYPNRIKVLHIKDRAILGESGMMNFENIFRQAYANGIKDYFVELEGMPDGRSQFEGVKGCVDYLLKAPFVK”, which “soluble on expression in E. coli” value is on record?
The value was “soluble”.

For “MSLKTIAIDFETANEERGSACSVGLAWIEDGQIVRVEERLIRPRDMRFSPFNIAVHGIRPRDVEDAPEFPEVMEEFIDDFHGATMIAHNAAFDFSVMRASFDKYRLSYPDLSYLCSVKIARHVWPHLVSHKLNVIAHHLQLRFVHHNAAEDAVVCAAASIAAARALGVAHIRDLPEKIGEGHHHHHH”, which “soluble on expression in E. coli” value is on record?
The value was “not soluble”.

For “MGSDKIHHHHHHMRILRVAQDIFPDKVGGAPYHIHALSRDQAEMGHDVTVLTVSNDQSKPQTEQRAGYTLVRLSPRIELFGNALFAGTVKYLRNAREYDVVHAHSHLFFSSNLTAAYSRVTDIPLAVTCHGLMSQRVPEWFSRFHLNTVGRFTYNAADVLFSYTAPERERLRDLGVSSDIRVIHNGIDVDRFTPVGATYDRITDATGPAVVFVGRLVEGKRPRDVLKAFQTVQNNIPEAKLFFCGDGPLRDKLEQIVERENMRESIRFLERVPYQEMPAVYRAADLFVLASRTEGFPRSVMESMACATPILSTRLEQTEQVIEQAGRTVPVGDTTALADAMSSMLDDRAALRKLGQAGREIVMREYDWSETVEQTTQTLGTISTSTPSQQQVDSGQAEEQVIPAGSNTEHEQ”, which “soluble on expression in E. coli” value is on record?
Its value is “not soluble”.

For “MSYYHHHHHHDYDIPTENLYFQGAMGRADPRNQRVLLDEYSRQRGQITAGGQLLAYSVATDGRFRFLRVYPNPEVYAPVTGFYSLRYSSTALERAEDPILNGSDRRLFGRRLADFFTGRDPRGGNVDTTINPRIQQAGWDAMQQGCYGPCKGAVVALEPSTGKILALVSSPSYDPNLLASHNPEVQAQAWQRLGDNPASPLTNRAISETYPPGSTFKVITTAAALAAGATETEQLTAAPTIPLPGSTAQLENYGGAPCGDEPTVSLREAFVKSCNTAFVQLGIRTGADALRSMARAFGLDSPPRPTPLQVAESTVGPIPDSAALGMTSIGQKDVALTPLANAEIAATIANGGITMRPYLVGSLKGPDLANISTTVGYQQRRAVSPQVAAKLTELMVGAEKVAQQKGAIPGVQIASKTGTAEHGTDPRHTPPHAWYIAFAPAQAPKVAVAVLVENGADRLSATGGALAAPIGRAVIEAALQGEP”, which “soluble on expression in E. coli” value is on record?
The value was “soluble”.

Which “soluble on expression in E. coli” value does the source give for “MVKVVGVRFKKAGKIYYFDPGDLEINLHENVIVETARGIEFGQVVVPNTEVSEEEIVAPLKKVIRVATEEDKAHHEDNIRREKEAFDICLQKIANHKLEMKLVGVEYTFDNNKILFYFTADGRVDFRELVKDLASVFRTRIELRQIGVRDEAKMMGGLGVCGRVLCCNSFLGEFQPVSIKMAKEQGLSLNPAKISGACGRLMCCLKYEQEAYEEIISRVPKEGAIVETPDGQGVVMSVSLLKELVKVKLDRENETDLKVYKASEVKVIKDVTREETEEEEIDLDELKQLED” here?
Its value is “soluble”.

With “MSLNTQDFLAGYTKRFVDNKEEDMSLDEYLELCKTDPTAYANPAERLLMAIGEPELIDTRHDPVLSRIFSNKIIHHYEVFEDFYGMEEPIEQIVGFLKHAAQGLEETKQVLYLLGPVGGGKSSIAEKLKDLMERVPFYAIKGSPVFESPLSLFNPQEDGELLRERFGIPTRYLRYLMSPWAVKRLQEYNGDISKFRVIKVKPSRLKQIAIAKTEPGDENNQDISSLVGKVDIRKLEEFSQDDPDAYSYSGGLCRANRGLLEFVEMFKAPIKVLHPLLTATQEGNYNATEGLSAIPFEGIILAHSNESEWQSFRNNKNNEAFIDRINIVKVPYCLRVSEEIKIYQKLIHNSSLANAPCAPGTLDMLAQFSVLTRLKEPQNSSIYSKMRVYNGESLKDTDPKAKSYQEYRDFAGVDEGMSGISTRFAFKILSKVFNFDHTEVAANPVHLMYVLERQIEQEQFPQELHETYLNFIKEYLATKYVDFIGKEIQTAYLESYSEYGQNIFDRYITYADFWIQDQDYRDPDTGEIFDRALLNLELEKIEKPAGISNPKDFRNEVVNFVLRARANNRGKNPVWNSYEKLKSVIEKKMFTNTEDLLPVISFNAKASEEDKKKHEEFISRMVEKGYTRKQVRLLCEWYLRVRKSQEGHHHHHH” as the sequence, how does the “soluble on expression in E. coli” value read?
The value was “soluble”.

With “MSDVTNTWNERYDTEEFVYGREPNAFLAGVSAMMPPGDVLCLAEGEGRNAVFLARQGHRVLAVDASAVGLSKAARLAEEHGVRIETLTTDLADLVIEPGRWDAIVSIFCHVPPPVRRVLHRQAVAGLRPGGLFVLEAYTPAQLELRTGGPPTVELLMTLADLREELAGLEFLQAREIERDVVEGRLHTGRGAVVQIVARKPLEHHHHHH” as the sequence, how does the “soluble on expression in E. coli” value read?
Its value is “soluble”.

Which “soluble on expression in E. coli” value does the source give for “MGSDKIHHHHHHMIVAVGKDEEKIKESLEEMKGLCKTLGVEVVEWLWQKRAKPDPATYLGKGKLQKLKEVVEFCEADLVVVDDEITPVQYKNMQSELNVDVLDRTQVILEIFARHATSEEGKLQVEMASLLYELPRLVGKGEELSRLGGGIGTRGPGEPLLEVLRRHIKNRIAQLRKRLKEIEQERNTQRKQRLEKKIPHVSIVGYTNAGKSTLLKVLTDSDVYVADKLFATLEPVTRRLKLKSGRVILVSDTVGFIRKLPHTIVSAFKATLEEIKYSDVLIHLVDASDPYLEEKMKASEKVLEEIGADKIPRILVFNKIDLCPRERIETLKWKYPEALFISAEKRIGLDQLLDRLEEVISQRDVQETLKVPLEKIGQIYALKDRLEILNEDYREGYALITLKTDRETLEMLKRKVAS” here?
The value was “not soluble”.

Which “soluble on expression in E. coli” value does the source give for “MSLALDLLLLPTWLVPVEPAGVVLREHGLGIRDGHIVFIGPRAEALKYRATEIRELPDTLLTPGLINAHGHAAMTLFRGLADDLLLMTWLEKHIWPAEAKWVDEAFVRDGTDLAIAEQIKGGITCFSDMYFFPKVASERVHNSGMRAQVAIPILDFPIPGAQNADEAIRQGVELFGDLKHHPRINITFGPHAPYTVGDENLEKIRIIAEELDAAIHMHVHETAHEVQQSVEQHGERPLARLARLGLLGPRFQAVHMTQISDDDLALLVETNTSVIHCPESNLKLASGFCPVERLWQAGVNVAVGTDGAASNNDLDLLGETRTAALLAKAVAGSATALDAHRALRMATLNGARAMGLESQVGSLEIGKAADLTAFDLSGLAQQPIYDPVSQLIYATGRDCVKHVWVAGKQLLDDRCLTRLDEHQLGATARDWARRISGHEGHHHHHH” here?
Its value is “soluble”.

With “MHILVVSVNYRTAPVEFREKLTFQAAELERAMTTLQNQKSVLENVIVSTCNRTEIYAVVDQLHTGRYYIKKFLADWFQLEIEEVAPYLTIFEQDGAIDHLFRVTCGLDSMVVGETQILGQIKDSFLEAQQVKATGTIFNELFKQVITLAKRAHSETTIGESAMSVSYAAVELGKKIFGELTDCHVLILGAGKMGELALQNLYGSGARKVTVMNRTLSKAEIMAEKYMGHAKPLSELQCALLEADILISSTGASDYVITKEMMTKVEKMRSGRPLFMVDIAVPRDIDPAIDELEGSFLYDIDDLQGVVEANRAERLKEAEKIQFMIEEEIVLFKTWLSTLGVVPLISALRDKALAIQSETMESLERKIPNLSDRERKVISKHTKSIINQLLKDPILVAKEIAAEEGADEKLALFAKIFDLEMEDVESRAEEVEHKRVWTPSVPSL” as the sequence, how does the “soluble on expression in E. coli” value read?
Its value is “not soluble”.

For “MNTKFLGKTLVASALVLTTLGTGLHSSYLGLDTNKVVKTAKAEEKMTDGQLWKKVKDSLHDSDIILSNEYETINVTYLLSNGYSSSVSAPGNDDGGHLTQSIDFKGLKQIDLTKENVYDDFNKKLDAKNTWNSLTEKLKGLGLLQNGQKVSIYSSDSSSPVSGKVGEGVTSGGENTLTKRFINKITID”, which “soluble on expression in E. coli” value is on record?
The value was “not soluble”.

Source: the DeepSol protein solubility set
